This is an account of results in paper PMC6044554.

The target of this assay is InlPΔLRR5-GST fusion protein (Listeria monocytogenes). Nature of the assay: pull-down; GST or GST fusion bait on Glutathione Sepharose 4B incubated overnight with MDCK cell lysate; beads boiled in SDS sample buffer; Western blot with anti-afadin antibody.

On to afadin (MDCK cells) (natural protein), for which the fold decrease of afadin binding against InlP-GST is > 10 fold.
